Reference: patent US9868960B2, “Placental like alkaline phosphatase (PLAP) promoter mediated cell targeting” (priority 2013, dated 2018)
Entries after “also recorded” stand apart in the source; their conditions may differ.

Columns and labels:
[1] = tested on: HPV-16 enhancer in SiHa cells; assay: Chip assay of H3K9me2 and H3K27me3 at the targeted enhancer; format: cell-based; settings: harvested after 5 days
Experimental: FIG. 13: Elucidating the mechanism of transcriptional gene silencing: (A) SiHa cells untreated or treated with TSA were transfected with NFκB+PLAP enhancer-promoter chimera expressing test & scrambled shRNA and harvested after 5 days. Chip was performed with antibodies against H3K9me2 and H3K27me3; antibodies against RNA polymerase and mouse IgG were respectively used as positive and negative controls for pull down. Input and immuno-precipitated DNA were measured by PCR with requisite primers and the enrichment at enhancer region was further quantified by qPCR.
Using chip assay, we assessed the level of histone H3K9 dimethylation (H3K9me2) and H3K27 trimethylation (H3K27me3), two repressive epigenetic marks shown to increase as a result of TGS.

[2] = tested on: PLAP negative cell lines HepG2 (Hepatoma) & CHO; assay: Dual luciferase reporter assay of promoter/enhancer-promoter constructs in PLAP negative cell lines; format: cell-based; settings: PLAP negative/control cell lines HepG2 & CHO, 48 hours post transfection
Experimental: (§1) All transfections were performed using Lipofectamine™ 2000 transfection reagent according to manufacturer's instruction (Invitrogen). Briefly, (1×10^6/well) cells were cultured in 6-well plates overnight. The luciferase reporter vectors (PLAP-luc, NFκB+PLAP−luc & pG13 Basic; 1 μg well^−1) were co-transfected in 20:1 ratio with Renilla luciferase expression vector (pRL-TK), an internal control for normalisation of the transcriptional activity of the reporter vectors. Forty-eight hours post transfection, the cells were lysed and luciferase activities were assayed using Dual Luciferase Assay reagents (Promega) according to manufacturer's protocol. All transfections were performed in triplicate and all experiments were repeated at least twice.
(§2) The region of PLAP promoter spanning from −170 to +24 containing invariant TATA boxes (nucleotides −31 to −25) & Sp1 binding sites (nucleotides −84 to −76) cloned in promoter less luciferase expression vector PGL3 basic was transfected in battery of PLAP positive cell cervical cell lines (HeLa, SiHa and CaSki) and appropriate PLAP negative cell lines HepG2 (Hepatoma) & CHO. Promoter activity was assayed in these in vitro model systems by dual luciferase assay.
(§3) To develop an optimal enhancer-promoter system for improving the transcriptional activity of PLAP promoter a fusion construct comprising of PLAP promoter & tetramer of NFKB binding sites cloned in PGL3 basic was evaluated by dual luciferase assay in the above mentioned cell lines. Furthermore, we compared the transcriptional activity of PLAP promoter/enhancer systems with strong SV40 virus promoter (PGL3 C).

[3] = tested on: PLAP positive cell lines (HeLa, SiHa, CaSki, Caco-2); assay: Dual luciferase reporter assay of promoter/enhancer-promoter constructs in PLAP positive cell lines; format: cell-based, human; settings: for transcriptional activity (relative luciferase activity over pGL3-Basic): PLAP positive cell lines, 48 hours post transfection, normalised by Renilla; for tissue specificity of luciferase expression: PLAP positive versus PLAP negative cell lines; for tissue specificity of luciferase expression / trend of construct activity (strength): FIG. 6; for trend of construct activity (strength): luciferase reporter constructs
Experimental: as §1, §2, §3

[4] = listed as NFκB+PLAP promoter enhancer systems

Molecule | levels of H3K9me2 and H3K27me3 at the targeted enhancer [1] | transcriptional activity (relative luciferase activity over pGL3-Basic) [2] | transcriptional activity (relative luciferase activity over pGL3-Basic) [2, 4] | transcriptional activity (relative luciferase activity over pGL3-Basic) [3] | transcriptional activity (relative luciferase activity over pGL3-Basic) [3, 4] | tissue specificity of luciferase expression [3] | trend of construct activity (strength) [3]
CC(/C=C/C(=O)NO)=C\[C@@H](C)C(=O)c1ccc(N(C)C)cc1 [trichostatin] | reduced this enrichment | – | – | – | – | – | –
NFKB−PLAP enhancer-promoter system: tetramer of NFκB DNA binding sites (GGGAATTTCC) upstream of PLAP promoter −170 to +24 in pGL3 Basic luciferase vector (nucleic acid, in pGL3 Basic luciferase vector; Enhancer (NFKB)-Promoter (PLAP) Sequence.) DNA: GGGAATTTCCGGGAATTTCCGGGAATTTCCGGGAATTTCCAAGCTGCCTTTCTCAGGACCCCAGCCCCAGCCCAGCCCAGCCACACCCTGCGACTCTCTTCAGCCAGTGTGGCTTCAGGTCAAGAGGCTGGGCGGGGTCAAGGTGGTAACAAGGGGAGGGGCCAGGACACAGTTTTCCCTGATTTAAACCCAGGCAGCCTGGAGTGCAGCTCATACTCCATACCTGGGATTTCCGC | – | not in PLAP negative cell line | little or no activity in the control cell lines | selective transcriptional activity in all the PLAP positive cell lines; also recorded: highly comparable to that of strong SV40 virus promoter | of optimum level only in carcinoma cell lines expressing PLAP | tissue selective expression | NFκB−PLAP Pr>SV40 Pr>PLAP Pr
PLAP promoter: human PLAP promoter region −170 to +24 cloned in promoter less luciferase expression vector pGL3 Basic (nucleic acid, listed as Homo sapiens, in pGL3 Basic luciferase vector; DNASequence (1)..(196) Unique PLAP promoter Sequence, human PLAP promoter region −170 to +24 cloned in promoter less luciferase expression vector pGL3 Basic) DNA: AAGCTGCCTTTCTCAGGACCCCAGCCCCAGCCCAGCCCAGCCACACCCTGCGACTCTCTTCAGCCAGTGTGGCTTCAGGTCAAGAGGCTGGGCGGGGTCAAGGTGGTAACAAGGGGAGGGGCCAGGACACAGTTTTCCCTGATTTAAACCCAGGCAGCCTGGAGTGCAGCTCATACTCCATACCTGGGATTTCCGC | – | little or no activity in the control cell lines; also recorded: not in PLAP negative cell line | – | of optimum level only in carcinoma cell lines expressing PLAP; also recorded: selective transcriptional activity in all the PLAP positive cell lines | – | tissue selective expression | NFκB−PLAP Pr>SV40 Pr>PLAP Pr
